Drawing on US20150087046A1 (SPIBER TECHNOLOGIES, published 2015), this text covers binding result and fold increase of antigen recognition against the scFv1 control for five molecules.

Assay [1] has as its target T1, albumin from human blood plasma (human, UniProt P02768 25-609).
T1 construct: Not purified: the albumin source was diluted human blood plasma
The assay can be described thus: film incubated with plasma, acid elution, non-reducing SDS-PAGE. As for the experimental part:
(§1) To evaluate the ability of ABD-NTCT films to bind albumin, human blood plasma was used as albumin source. Four films of ABD-NTCT and ABD-CT were pre-wetted with 150 μl of 1×PBS followed by incubation of 100 μl of human blood plasma (1:5 dilution) for 30 min at room temperature. After washing three times with 200 μl 1×PBS, bound albumin was eluted in 50 μl by lowering the pH to approximately 2.7 with elution buffer (i.e. 0.5 M acetic acid, 1 M urea, 100 mM NaCl), after which the eluted fractions were analyzed by non-reducing SDS-PAGE. Films of NTCT and CT were used as control material, and were treated in the same way.

In assay [2] the target is T1, albumin from human blood plasma. The assay can be described thus: film incubated with human blood plasma (1:5), acid elution, non-reducing SDS-PAGE. The method, then: Films of His₆-ABD-CT were casted in 96-well plates (Tissue culture plate, Suspension cells, 83.1835.500, Sarstedt) from 15 μl of 1 mg/ml soluble fusion protein per film. The films were then allowed to solidify over night (20° C., 35% relative humidity). The same procedure was followed for casting films of His₆-ABD-NTCT from 15 μl of 1 mg/ml protein solution.
as §1

Assay [3] has as its target biotinylated antigen sample (antigen recognised by scFv1, specific for Systemic Lupus Erythematosus). Put plainly: microarray of spotted films, 10 nM biotinylated antigen, Alexa-647-streptavidin, spot intensity; reference: pure scFv1 control.

T1 sequence (P02768 25-609 limits assumed): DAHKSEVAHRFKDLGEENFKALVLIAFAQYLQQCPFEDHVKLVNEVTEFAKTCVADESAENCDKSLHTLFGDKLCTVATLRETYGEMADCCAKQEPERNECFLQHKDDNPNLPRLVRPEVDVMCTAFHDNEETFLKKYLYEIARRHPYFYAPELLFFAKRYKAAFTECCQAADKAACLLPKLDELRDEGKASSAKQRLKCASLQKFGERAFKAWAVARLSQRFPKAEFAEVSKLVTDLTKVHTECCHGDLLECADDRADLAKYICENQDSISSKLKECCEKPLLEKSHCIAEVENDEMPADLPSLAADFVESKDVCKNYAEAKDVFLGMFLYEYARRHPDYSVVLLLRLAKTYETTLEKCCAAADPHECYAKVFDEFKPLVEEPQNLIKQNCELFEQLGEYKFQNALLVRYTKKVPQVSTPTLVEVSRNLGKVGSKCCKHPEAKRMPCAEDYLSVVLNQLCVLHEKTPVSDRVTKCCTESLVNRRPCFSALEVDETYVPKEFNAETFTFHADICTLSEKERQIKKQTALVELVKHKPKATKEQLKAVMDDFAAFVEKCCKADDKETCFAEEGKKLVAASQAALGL

B1: NTCT (control) film (other)
chain: HHHHHHMSHTTPWTNPGLAENFMNSFMQGLSSMPGFTASQLDDMSTIAQSMVQSIQSLAAQGRTSPNKLQALNMAFASSMAEIAASEEGGGSLSTKTSSIASAMSNAFLQTTGVVNQPFINEITQLVSMFAQAGMNDVSASASAGASAAASAGAGSGNSGIQGYGQSSASASAAASAASTVANSVSRLSSPSAVSRVSSAVSSLVSNGQVNMAALPNIISNISSSVSASAPGASGCEVIVQALLEVITALVQIVSSSSVGYINPSAVNQITNVVANAMAQVMG
notes: also called His6NT-CT; His6NTCT
As for B1, the binding result in assay [1] is “no binding (tested: human blood plasma (1:5 dilution))”.

B2: His6-ABD-NTCT fusion protein (other)
chain: MGSSGHHHHHHMLAEAKVLANRELDKYGVSDYYKNLINNAKTVEGVKALIDEILAALPGNSSHTTPWTNPGLAENFMNSFMQGLSSMPGFTASQLDDMSTIAQSMVQSIQSLAAQGRTSPNKLQALNMAFASSMAEIAASEEGGGSLSTKTSSIASAMSNAFLQTTGVVNQPFINEITQLVSMFAQAGMNDVSAGNSGIQGYGQSSASASAAASAASTVANSVSRLSSPSAVSRVSSAVSSLVSNGQVNMAALPNIISNISSSVSASAPGASGCEVIVQALLEVITALVQIVSSSSVGYINPSAVNQITNVVANAMAQVMG
notes: Tested as a solid film (polymer of the fusion protein) cast in 96-well plates from 15 ul of 1 mg/ml protein
As for B2, the binding result in assay [2] is recorded as “binds”.

B3: CT (control) film (other)
chain: SRLSSPSAVSRVSSAVSSLVSNGQVNMAALPNIISNISSSVSASAPGASGCEVIVQALLEVITALVQIVSSSSVGYINPSAVNQITNVVANAMAQVMG
Regarding B3, the binding result in assay [1] is recorded as “no binding (tested: human blood plasma (1:5 dilution))”.

B4: His6-scFv1-NTCT fusion protein (scFv)
chain: MGSSGHHHHHHMEVQLLESGGGLVQPGGSLRLSCAASGFTFSSYEMNWVRQAPGKGLEWVSGISGSGGFTYYADSVKGRFTISRDNSKNTLYLQMNSLRAEDTAMYYCAREGYQDAFDIWGQGTLVTVSSGGGGSGGGGSGGGGSQSVLTQPPSASGTPGQRVTISCTGSSSNIGAGYDVHWYQQLPGTAPKLLIYSNNQRPSGVPDRFSGSKSGTSASLAISGLRSEDEADYYCAAWDDSLSGPPWVFGGGTKLTVLGEQKLISEEDLSGSAAAGNSSHTTPWTNPGLAENFMNSFMQGLSSMPGFTASQLDDMSTIAQSMVQSIQSLAAQGRTSPNKLQALNMAFASSMAEIAASEEGGGSLSTKTSSIASAMSNAFLQTTGVVNQPFINEITQLVSMFAQAGMNDVSAGNSGIQGYGQSSASASAAASAASTVANSVSRLSSPSAVSRVSSAVSSLVSNGQVNMAALPNIISNISSSVSASAPGASGCEVIVQALLEVITALVQIVSSSSVGYINPSAVNQITNVVANAMAQVMG
B4 gave a fold increase of antigen recognition against the scFv1 control in assay [3] of 25 times.

B5: His6-ABD-CT fusion protein (other)
chain: MGHHHHHHMLAEAKVLANRELDKYGVSDYYKNLINNAKTVEGVKALIDEILAALPGNSGIQGYGQSSASASAAASAASTVANSVSRLSSPSAVSRVSSAVSSLVSNGQVNMAALPNIISNISSSVSASAPGASGCEVIVQALLEVITALVQIVSSSSVGYINPSAVNQITNVVANAMAQVMG
notes: as for B2
Take B5: the binding result in assay [2] is “binds”.
